Assay: yeast display, Sf9 membrane polyspecificity reagent, FACS + sequencing; frameworks hold sequencing errors
In short: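 Nanobodies came from a synthetic yeast display library in Saccharomyces cerevisiae BJ5465, induced with galactose for 36–48 hours and stained for 1 hour at 4 °C with 10% biotinylated, detergent-solubilized Sf9 membrane reagent. Cells were enriched on streptavidin microbeads and then FACS-sorted, with low and high (top ~1%) gates set on anti-HA fluorescence for expression and streptavidin fluorescence for reagent binding. Each polyreactivity label reflects the gate a clone came from. Genes were amplified by colony PCR, sequenced by MiSeq 2 × 250 and filtered by CDR length.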
With “QVQLVESWGGLVQAGGSHRLSCSASGTILGDYGMGWYRQAPGKEREMVGAITWNGDSTYYADSVKGRFTISRDNAKNTVYLQMNSLKPEDTAVYYCAADLKDYKYYPWYGYWGQGTQVTVSS” the “polyreactivity (PSR sort gate)” value was “low polyreactivity”.
For “QVQLVESWGGLVQAGGSLHLSCAASGSTFQEYAMGWYRQAPGKERELVASIRWSGGRTYYADSVKGRFTISRDNAKNTVYLQMNSLKPEDTAFYYCAAGQWWYQVRFDYWGQGTQVTVSS”, the “polyreactivity (PSR sort gate)” value was “low polyreactivity”.
With “QVQLVESWGGLVQAGGSLRLRCAASGRTIDYNAIGWYRQAPRKEREFVADISNGGTTSYADSVKGSFTFSRDNAKNTVYLHMNSLKPEVTAVYYCATLYDWSSFANSYWYFGWEEDYWGQGTQVTVSS” the “polyreactivity (PSR sort gate)” value was “low polyreactivity”.
With “QVQLVESWGGLVQAGGSLRLSCAASGHTFREKAMGWYRQAPGKERELLAAITSSGRTYYADSVKGRFTISRDNAKNTVYLQMNRQKPEDTAVYYCAADYWYVYPRYNPGDYWGQGSQVTVSS” the “polyreactivity (PSR sort gate)” value was “high polyreactivity”.
In the case of “QVQLVESWGGLVQAGGSLRLSCAASGIIFVSNAMGWYRQATGKERELVATINWSDDSTYYADSVKGRFTISRDNAKNTVYLQMNSLKPEDTAVYYCAADDYAVDYSYYYNDEYDYWGQGTQVTVSS”, the “polyreactivity (PSR sort gate)” value is reported as “low polyreactivity”.
In the case of “QVQLVESWGGLVQAGGSLRLSCAASGIIRSNAMGWYRQAPGKERELVAVISSSGGRTYYADSVKGRFTISRDNAKNTVYLQMNSLKPEDTAVYYCAAQVQVGAFSYYYWGQGTQVTVSS”, the “polyreactivity (PSR sort gate)” value is reported as “high polyreactivity”.
For “QVQLVESWGGLVQAGGSLRLSCAASGITFTVYAMGWYRQPPGKERELVAAITRGTSTYADSVKGRFTISRDNAKNTVYLQMNSLKPEDTAVYYCAARSSPWYTRYRSSELFDYWGQGTQVTVSS”, the “polyreactivity (PSR sort gate)” value was “high polyreactivity”.
For “QVQLVESWGGLVQAGGSLRLSCAASGLIFNYYAMGWYRQAPGKERELVAAITTGGGTYYADSVKGRFTISRDNAKNTVYLQMNSLKPEDTAVYYCAAVWGNRSRYPGHYYWGQGTQVTVSS”, the “polyreactivity (PSR sort gate)” value was “high polyreactivity”.
In the case of “QVQLVESWGGLVQAGGSLRLSCAASGRIFANYGMGWYRQAPRKERELVAAIDRSGGTTFYADSVKGRFTISRDNAKNTVYLQMNSLKPEDTAVYYCAAALSYWYYAYYYWGQGTQVTVSS”, the “polyreactivity (PSR sort gate)” value is reported as “low polyreactivity”.
For “QVQLVESWGGLVQAGGSLRLSCAASGRIFKLYAMGWYRQAPGKERELVAGINWSGGTTYYAESVKGRFTISRDNAKNTVYLQMNSLKPEDTAVYYCAARTRNGAGYYWGQGTQVTVSS”, the “polyreactivity (PSR sort gate)” value was “high polyreactivity”.
For “QVQLVESWGGLVQAGGSLRLSCAASGRTFDRYDMGWYRQAPGKERELVATISSSGGSTYYADSVKGRFTISRDNAKNTVYLQMNSLKPEDTAVYYCAADPSGDYWGQGTQVTVSS”, the “polyreactivity (PSR sort gate)” value was “low polyreactivity”.
In the case of “QVQLVESWGGLVQAGGSLRLSCAASGRTFVTNAMGRYRQAPGTERELVAAISGSGGSTYYADSVTGRFTISRDNAKNTVYLQMNSLKPEDTAVYYCATSYSLGYARYGYWGQGTQVTVSS”, the “polyreactivity (PSR sort gate)” value is reported as “high polyreactivity”.
With “QVQLVESWGGLVQAGGSLRLSCAASGSTFFSYAMGWYRQAPGKERELVAGIEWNGGDTNYADSVKGRFTISRDNAKNTVYLQMNSRKPVDTAVYYCATDYSYPGPFRRRERFDYWGQGTQVTVSS” the “polyreactivity (PSR sort gate)” value was “low polyreactivity”.
For “QVQLVESWGGLVQAGGSLRLSCAASGSTFIGYAMGWYRQAPGKERELVAAISWSGGSTYYADSVKGRFTISRDNAKNTVYLQMNSLKPEDTAVYYCAASQYVQGHKYYYWGQGTQVTVSS”, the “polyreactivity (PSR sort gate)” value was “high polyreactivity”.
In the case of “QVQLVESWGGLVQAGGSLRLSCAASGSTFIQNAMGWYRQAPGKERELVAAITSGGGTNYADSVKGRFTISRDNAQNTVYLQMNSLKPEDTAVYYCAAEPFNYDDFWFGWEYQYEYWGQGTQVTVSS”, the “polyreactivity (PSR sort gate)” value is reported as “low polyreactivity”.
For “QVQLVESWGGLVQAGGSLRLSCAASGSTFRGNAMGWYRQAPGTERELVAAITRRGGSTYYADSVKGRFTISRDNAKNTVYLQMNSLKPEDPAVYYCAKVGRETEYDYWGQGTQVTVSS”, the “polyreactivity (PSR sort gate)” value was “high polyreactivity”.
With “QVQLVESWRGLVQAGGSLRLSCAASGNTFRWYAMGWYRQEPGKEREFVADITVRGGSTYYADSLKGRFTISRDNAKNTVYLQMNSLKPEQTAVYYCAVDFRRYPGFDYWGQGTQVTVSS” the “polyreactivity (PSR sort gate)” value was “low polyreactivity”.
For “QVQLVETAGGLVQAGGSLRLSSAASGRIFPFNTMGWSRQAPGKERELVATITYRGDRTYYADSVKGRFTISRDNAKNTVYLQMNSLKPEDTGVYYCNARGTYYLGRYYWGQGTQETVSS”, the “polyreactivity (PSR sort gate)” value was “high polyreactivity”.
For “QVQLVETCGGLVHAGGSLRLSCAASGSTFVDNSMGRYRQAPGKERELGADISWSGGSTYYADSVKGRFTNSRDNAKTTVYLQMNSLKPQDTAVYYCAAYRNDYGYWTYVYYTDDYDYWGQGTQVTVSS”, the “polyreactivity (PSR sort gate)” value was “low polyreactivity”.
For “QVQLVETGAGLVQAGGSLRLSCGASGLTFARYAMGWYRQAPGKERELVAGIDSTGGTTYYADSVKGRFTISRDNAKNTVYLQMNSLKPVDTAVYYCYYWGLGTQVTVSS”, the “polyreactivity (PSR sort gate)” value was “low polyreactivity”.
In the case of “QVQLVETGGALVQAGGSLRLSCAASGFTFIDYTMGCYSQAPGKERELVARITDTGSTNYADSVKVRFTISRDNAKNTVYLQMNSLKQEDTAVYYCNKDDRNDRTIPGYDPEYDYWGQGTQVTVSS”, the “polyreactivity (PSR sort gate)” value is reported as “low polyreactivity”.
With “QVQLVETGGGLFQAGGSLRLSCAASGFIYSYAMGWYRQAPGKERELDAAISRSGGSTYYADSVKGRFTISRDNAKNTVYLQMNSLKPEDTAVYYCAARPNSNRYVRYGYWGQGTQVTVSS” the “polyreactivity (PSR sort gate)” value was “high polyreactivity”.
For “QVQLVETGGGLVHAGGSLRLSCAASGSIFDAYAMGWYRQAPGKERELFASITSGGRTNYADSVKGRFTISRDNAKNTVYLQMNSLKPEDTAVYYCAKVRTRATPGLDYYYWGQGTQVTVSS”, the “polyreactivity (PSR sort gate)” value was “high polyreactivity”.
For “QVQLVETGGGLVQAGGRLRLSCAASGITFYFNTMGWYRPAPGKERELVASISGGSSTYYADSVKGRFPISRDNAKNTVYLQMISLKREDTAVYYCNAQGSLFRGWFDYDYWGQGTQVTVSS”, the “polyreactivity (PSR sort gate)” value was “low polyreactivity”.
With “QVQLVETGGGLVQAGGSHRLSCAASGFIIPYYAKGWSRQPPGKERELLAAIDSGGSTNYADSVKGRFTISRDNAKNTVSLQMNRLIPEDTAVYYCAVPSYGVNIWGGFDEYNYWGQGTQVTVSS” the “polyreactivity (PSR sort gate)” value was “high polyreactivity”.
With “QVQLVETGGGLVQAGGSLGLSCAASGRTFGVNAMGWYRQAPGKERELVAAITRGGNTYYADSVKGRFTISRDNAKNTVYLQMNSLKPEDTAVYYCAATGWLRIDRPYTYTYGYWGQGTQVTVSS” the “polyreactivity (PSR sort gate)” value was “high polyreactivity”.
With “QVQLVETGGGLVQAGGSLRISCAASGFIFPSYAMGWYRQAPGKERELVAAITSGGRTYYADSVKGLFTISRDNAKKTVYLQMNSLKPEDYAVYYCAAKSHSKTGTRYYYCGQGTQVTVSS” the “polyreactivity (PSR sort gate)” value was “high polyreactivity”.
For “QVQLVETGGGLVQAGGSLRLCCAASGRIFWYNAMGWYRPAPGKERELVAAISSIDGTTYYADSVKGRFTISRDNAKNTVYLQMNSLKPEDTAVYYCAAEDPADQYDYWGQGTQVTVSS”, the “polyreactivity (PSR sort gate)” value was “high polyreactivity”.
In the case of “QVQLVETGGGLVQAGGSLRLSCAASASIFTANAMGWYRQAPGKERELVAAISRSGGRTYYADSVKGRFTISRDNAKNTVYLQMNSLKPEDTAVYYCAAVYVYPSTSRYDFWGQGTQVTVSS”, the “polyreactivity (PSR sort gate)” value is reported as “high polyreactivity”.
In the case of “QVQLVETGGGLVQAGGSLRLSCAASGFIFGYNARGWYRKAPGQVRELVAAISSGGRTYYADSVKGRFTISRDNAKHTVYLQMNSLKPQDTAVYYCSVDPHLYALRGAVYYWGQGTQVTVSS”, the “polyreactivity (PSR sort gate)” value is reported as “low polyreactivity”.
For “QVQLVETGGGLVQAGGSLRLSCAASGFNFGPYDIGWYIQAPGKERELVAAITDSSGSTHYADSVKGRFTISRDNAKNTVYLQMNSLKPEDTAVYYWAADDSSRTTYDYWGQGTQVTVSS”, the “polyreactivity (PSR sort gate)” value was “low polyreactivity”.
With “QVQLVETGGGLVQAGGSLRLSCAASGFTFDVYVMGWYRLAPGKERELVAAISWSGDSTYYADSVKGRFTISRDNAKNTVYLQMNSLKPADCAFSFCAAVGYTSRRPVVRYYYWGQGTQVTVSS” the “polyreactivity (PSR sort gate)” value was “high polyreactivity”.
For “QVQLVETGGGLVQAGGSLRLSCAASGFTFYNNAMGWYGQAPGKERELGAVITSNGGRTYYADSVKGRFTISRDNAKNTVYLQMNSLKPEDTAVYYCAKDYKAMYLYHYRISGGDVDYWGQGTQVTVSS”, the “polyreactivity (PSR sort gate)” value was “low polyreactivity”.
With “QVQLVETGGGLVQAGGSLRLSCAASGGIFVTYAMGWYRQAPGKERELVAAITSGDSTYYADSVKGRFTISRDNAKNTVYLQMNSLKAEDTGVYYCAVGSTDRVSAQGSYFTYDYWGQGTQVTVSS” the “polyreactivity (PSR sort gate)” value was “low polyreactivity”.
With “QVQLVETGGGLVQAGGSLRLSCAASGIIFFYYGMGWYRQAPGKERELVARISSGGSTNYADSVKGRFTISRDNAKNTVYLHMNSLKQEDTAVYYCAARISTRYGYWGPGTQVTVSS” the “polyreactivity (PSR sort gate)” value was “low polyreactivity”.
In the case of “QVQLVETGGGLVQAGGSLRLSCAASGIIIQNNAMGWYRQAPGTERELVAAISSSGGRTYYADSVKGRFTISRDNAKNTVYLQMNSLKPEDTEVYYCNKRWRGSYDYWGQGTQVTVSS”, the “polyreactivity (PSR sort gate)” value is reported as “high polyreactivity”.
In the case of “QVQLVETGGGLVQAGGSLRLSCAASGITFASYDMGWYRQAPGKEWELVAAISSGGDTTYADSVKGRFTLSRDNAKNTVSLQMNSLKPEDTAVYYCNKDIDFAVSAYESSPRTMYYWGQGTQVTVSS”, the “polyreactivity (PSR sort gate)” value is reported as “low polyreactivity”.
In the case of “QVQLVETGGGLVQAGGSLRLSCAASGITLPKYAMGWYRQAPGKERELVAAISRSSGRTYYADSVKGRFTISRDNAKNTVYLQMNSLKPEDTAVYYCAASHGGYITRYNYWGQGTQVTVSS”, the “polyreactivity (PSR sort gate)” value is reported as “high polyreactivity”.
For “QVQLVETGGGLVQAGGSLRLSCAASGLIFYSYTMGWYRQAPGKERELVAVISRSGTSTYYADSVKGRFTISRDNAKNTVYLQMNSLKPEDTAVYYCAARAYVSHYGVSNFGYYYWGQGTQVTVSS”, the “polyreactivity (PSR sort gate)” value was “high polyreactivity”.
In the case of “QVQLVETGGGLVQAGGSLRLSCAASGNTFHSNAMGCYSQAPGKERELVAAITPSDGDPYYADSVKGRFTISRDNAKNTVYLQMNSLKPEDTAVYYCAAEDDPGEYEYWGQGTQVTVSS”, the “polyreactivity (PSR sort gate)” value is reported as “low polyreactivity”.
With “QVQLVETGGGLVQAGGSLRLSCAASGNTFVLYAMGWYRQAPGKERELVAAIRRGVRTYADSVKGRFTISRDNAKNTFYLQMNSLIPDDTAVYYCAAYYVFLDNDYWGHGTQVTVSS” the “polyreactivity (PSR sort gate)” value was “high polyreactivity”.
For “QVQLVETGGGLVQAGGSLRLSCAASGRIFSNYVMGLYRQAPVKERELVAAISGSGGRTYYADSVKGRFTISRDNAKNTVYVQMNSRTPEDTAVYYCAARRSERDRYGGYYYWGQGTQVTVSS”, the “polyreactivity (PSR sort gate)” value was “high polyreactivity”.
For “QVQLVETGGGLVQAGGSLRLSCAASGRIIRYNAMGWYSQAPGKERELVAAISTRGGNTYYADSVKGRFTISRDNAKNTVYLQMNSLKPEDTAVYYCNARSSLPYNYWGQGTQVTVSS”, the “polyreactivity (PSR sort gate)” value was “high polyreactivity”.

Reference: the nanobody polyreactivity screen of Harvey et al. (2022)
